Where “and” joins values, the source holds several entries; their conditions need not be identical. Equal values may be shown once.
Experiments:
[1] = target: T1, MlaE (E. coli, UniProt P64606 1-260); assay: affinity purification with mass spectrometry
T1 sequence (looked up): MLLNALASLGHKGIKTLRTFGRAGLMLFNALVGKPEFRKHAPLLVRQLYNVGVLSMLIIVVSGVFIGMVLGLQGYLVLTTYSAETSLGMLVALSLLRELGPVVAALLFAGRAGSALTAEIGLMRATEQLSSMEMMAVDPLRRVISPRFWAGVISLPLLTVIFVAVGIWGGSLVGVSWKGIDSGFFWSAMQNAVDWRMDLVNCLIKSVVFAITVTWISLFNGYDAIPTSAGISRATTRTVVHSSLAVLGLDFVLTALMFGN

[2] = target: the molecule itself; assay: cryo-EM structure
[3] = target: the molecule itself; assay: crystal structure
[4] = target: T2, MlaA with C-terminal 6xHis tag (E. coli, UniProt P76506 18-251); assay: affinity purification with mass spectrometry
T2 sequence (looked up): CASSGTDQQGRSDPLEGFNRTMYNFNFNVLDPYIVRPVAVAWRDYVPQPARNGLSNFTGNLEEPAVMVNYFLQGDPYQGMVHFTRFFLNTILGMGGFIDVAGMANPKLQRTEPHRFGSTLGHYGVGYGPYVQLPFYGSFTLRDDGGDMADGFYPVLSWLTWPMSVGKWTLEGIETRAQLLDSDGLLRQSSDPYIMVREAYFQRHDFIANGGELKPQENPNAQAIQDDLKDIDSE

[5] = target: the molecule itself; assay: negative-stain EM

B1: His-tagged MlaD, co-expressed from the mlaFEDCB operon (natural protein, E. coli, UniProt P64604 1-183, looked up)
chain: MQTKKNEIWVGIFLLAALLAALFVCLKAANVTSIRTEPTYTLYATFDNIGGLKARSPVSIGGVVVGRVADITLDPKTYLPRVTLEIEQRYNHIPDTSSLSIRTSGLLGEQYLALNVGFEDPELGTAILKDGDTIQDTKSAMVLEDLIGQFLYGSKGDDNKNSGDAPAAAPGNNETTEPVGTTK
binding result [1]: binds

B2: PqiB periplasmic domain (residues 39-546) (domain or fragment, E. coli, UniProt P43671 39-546, looked up)
chain: SHQGPEVTLITANAEGIEGGKTTIKSRSVDVGVVESATLADDLTHVEIKARLNSGMEKLLHKDTVFWVVKPQIGREGISGLGTLLSGVYIELQPGAKGSKMDKYDLLDSPPLAPPDAKGIRVILDSKKAGQLSPGDPVLFRGYRVGSVETSTFDTQKRNISYQLFINAPYDRLVTNNVRFWKDSGIAVDLTSAGMRVEMGSLTTLLSGGVSFDVPEGLDLGQPVAPKTAFVLYDDQKSIQDSLYTDHIDYLMFFKDSVRGLQPGAPVEFRGIRLGTVSKVPFFAPNMRQTFNDDYRIPVLIRIEPERLKMQLGENADVVEHLGELLKRGLRGSLKTGNLVTGALYVDLDFYPNTPAITGIREFNGYQIIPTVSGGLAQIQQRLMEALDKINKLPLNPMIEQATSTLSESQRTMKNLQTTLDSMNKILASQSMQQLPTDMQSTLRELNRSMQGFQPGSAAYNKMVADMQRLDQVLRELQPVLKTLNEKSNALVFEAKDKKDPEPKRAKQ
stoichiometry N [2]: 6

B3: MlaD core MCE domain (residues 32-140) (domain or fragment, E. coli, UniProt P64604 32-140, looked up)
chain: TSIRTEPTYTLYATFDNIGGLKARSPVSIGGVVVGRVADITLDPKTYLPRVTLEIEQRYNHIPDTSSLSIRTSGLLGEQYLALNVGFEDPELGTAILKDGDTIQDTKSA
stoichiometry N [3]: 7 and 14

B4: OmpF (natural protein, E. coli (endogenous in Rosetta 2 (DE3)), UniProt P02931 23-362, looked up)
chain: AEIYNKDGNKVDLYGKAVGLHYFSKGNGENSYGGNGDMTYARLGFKGETQINSDLTGYGQWEYNFQGNNSEGADAQTGNKTRLAFAGLKYADVGSFDYGRNYGVVYDALGYTDMLPEFGGDTAYSDDFFVGRVGGVATYRNSNFFGLVDGLNFAVQYLGKNERDTARRSNGDGVGGSISYEYEGFGIVGAYGAADRTNLQEAQPLGNGKKAEQWATGLKYDANNIYLAANYGETRNATPITNKFTNTSGFANKTQDVLLVAQYQFDFGLRPSIAYTKSKAKDVEGIGDVDLVNYFEVGATYYFNKNMSTYVDYIINQIDSDNKLGVGSDDTVAVGIVYQF
stoichiometry N [4]: ~1

B5: YebT, full length, C-terminal 6xHis tag (natural protein, E. coli, UniProt P76272 1-877, looked up)
chain: MSQETPASTTEAQIKNKRRISPFWLLPFIALMIASWLIWDSYQDRGNTVTIDFMSADGIVPGRTPVRYQGVEVGTVQDISLSDDLRKIEVKVSIKSDMKDALREETQFWLVTPKASLAGVSGLDALVGGNYIGMMPGKGKEQDHFVALDTQPKYRLDNGDLMIHLQAPDLGSLNSGSLVYFRKIPVGKVYDYAINPNKQGVVIDVLIERRFTDLVKKGSRFWNVSGVDANVSISGAKVKLESLAALVNGAIAFDSPEESKPAEAEDTFGLYEDLAHSQRGVIIKLELPSGAGLTADSTPLMYQGLEVGQLTKLDLNPGGKVTGEMTVDPSVVTLLRENTRIELRNPKLSLSDANLSALLTGKTFELVPGDGEPRKEFVVVPGEKALLHEPDVLTLTLTAPESYGIDAGQPLILHGVQVGQVIDRKLTSKGVTFTVAIEPQHRELVKGDSKFVVNSRVDVKVGLDGVEFLGASASEWINGGIRILPGDKGEMKASYPLYANLEKALENSLSDLPTTTVSLSAETLPDVQAGSVVLYRKFEVGEVITVRPRANAFDIDLHIKPEYRNLLTSNSVFWAEGGAKVQLNGSGLTVQASPLSRALKGAISFDNLSGASASQRKGDKRILYASETAARAVGGQITLHAFDAGKLAVGMPIRYLGIDIGQIQTLDLITARNEVQAKAVLYPEYVQTFARGGTRFSVVTPQISAAGVEHLDTILQPYINVEPGRGNPRRDFELQEATITDSRYLDGLSIIVEAPEAGSLGIGTPVLFRGLEVGTVTGMTLGTLSDRVMIAMRISKRYQHLVRNNSVFWLASGYSLDFGLTGGVVKTGTFNQFIRGGIAFATPPGTPLAPKAQEGKHFLLQESEPKEWREWGTALPK
stoichiometry N [5]: 6
